From patent publication US20100111959A1
Numbering of substitutions follows the chain as printed. Names may count otherwise. “And” between values parts separate entries of the source, which are not always exact repeats. Equal entries are not always repeated.

B1: mAb Lc-2B03 + Hc2 M34S, M100L (antibody, human IgG1, V domains shown)
VH: QVTLKESGPVLVKPTETLTLTCTVSGFSLSTYGSGVGWIRQPPGKALEWLAHIWWDDVKRYNPALKSRLTISKDTSKSQVVLTMTNMDPVDTATYYCARLGSDYDVWFDYWGQGTLVTVSS
VL: EIVLTQSPATLSLSPGERATLSCRASKSISKYLAWYQQKPGQAPRLLIYSGSTLQSGIPARFSGSGSGTDFTLTISSLEPEDFAVYYCQQHDYPYTFGQGTKLEIKR
B2: mAb Lc-2B03 + Hc2 T31S, M34S, M100L, V106I (antibody, human IgG1, V domains shown)
VH: B1 VH with T31S, V106I
VL: B1 VL
B3: Lc15Hc1 (antibody, human IgG1, V domains shown)
VH: B1 VH with V10A, E16Q, V24F, S34M, S78N, L100M
VL: VIWMTQSPSLLSASTGDRVTISCRASKSISKYLAWYQQKPGKAPELLIYSGSTLQSGVPSRFSGSGSGTDFTLTISCLQSEDFATYYCQQHNEYPYTFGGGTKVEIK
B4: mAb Lc-2B03 + Hc2 M34S, M100L, V106I (antibody, human IgG1, V domains shown)
VH: B1 VH with V106I
VL: B1 VL
B5: mAb Lc-2B03 + Hc2 T31S, M34S, M100L (antibody, human IgG1, V domains shown)
VH: B1 VH with T31S
VL: B1 VL
B6: mAb Lc-2B03 + Hc2 M34V, M100L, V106I (antibody, human IgG1, V domains shown)
VH: B1 VH with S34V, V106I
VL: B1 VL
B7: Lc7Hc1 (antibody, human IgG1, V domains shown)
VL: DIQLTQSPSSLSASVGDRVTITCRASKSISKYLAWYRQKPGKVPKLLIYSGSTLQSGVPSRFSGSGSGTDFTLTISSLQPEDVATYYGQQHNEYPYTFGQGTKLEIK
VH: B1 VH with V10A, E16Q, V24F, S34M, S78N, L100M
B8: mAb Lc-2B03 + Hc2 M34E, M100L (antibody, human IgG1, V domains shown)
VH: B1 VH with S34E
VL: B1 VL
B9: mAb Lc-2B03 + Hc2 M34V, M100L (antibody, human IgG1, V domains shown)
VH: B1 VH with S34V
VL: B1 VL
B10: mAb Lc-2B03 + Hc2 M34Q, M100L (antibody, human IgG1, V domains shown)
VH: B1 VH with S34Q
VL: B1 VL
B11: mAb Lc-2B03 + Hc2 M34E, M100L, V106I (antibody, human IgG1, V domains shown)
VH: B1 VH with S34E, V106I
VL: B1 VL
B12: mAb Lc-2B03 + Hc2 T31S, M34V, M100L (antibody, human IgG1, V domains shown)
VH: B1 VH with T31S, S34V
VL: B1 VL
B13: Lc3Hc6 (antibody, human IgG1, V domains shown)
VH: QVQLVESGGGVVQPGRSLRLSCAASGFSLSTYGMGVGWVRQAPGKGLEWVAHIWWDDVKRYNPALKSRFTISRDNSKNTLYLQMNSLRAEDTAVYYCARMGSDYDVWFDYWGQGTLVTVSS
VL: B7 VL with D1A, R37Q, V43A, V83F, G88C, Q100G, L104V
B14: Lc7Hc6 (antibody, human IgG1, V domains shown)
VL: B7 VL
VH: B13 VH

Columns and labels:
[1] = biological target: human IL-13 R130Q variant (R110Q of the mature chain) (human) (UniProt P35225); experiment: Biacore SPR, mAb from CHO
[2] = biological target: human IL-13 R130Q variant (R110Q of the mature chain) (human) (UniProt P35225); experiment: Biacore SPR, mAb from HEK293
[3] = biological target: human IL-13 R130Q variant (R110Q of the mature chain) (human) (UniProt P35225); experiment: IL-13Ra2 binding inhibition ELISA, crude supernatant
[4] = biological target: human IL-13 R130Q variant (R110Q of the mature chain) (human) (UniProt P35225); experiment: direct binding ELISA, crude supernatant, relative to Lc16Hc7

Binder | Kd [1] | Kd [2] | Percent Inhibition IL-13 R130Q (333 ng/ml) to Ra2 [3] | Percent IL-13 R130Q (30 ng/ml) Binding [4]
B1 | 0.0184 nM | 0.0014 nM |  | 
B2 | 0.0211 nM | 0.0152 nM |  | 
B3 |  |  | 44% | 76.2%
B4 |  | 0.0205 nM and 0.0209 nM |  | 
B5 | 0.0101 nM | 0.0123 nM |  | 
B6 |  | 0.0252 nM |  | 
B7 |  |  | 6% | -1.4%
B8 |  | 0.0076 nM |  | 
B9 | 0.019 nM | 0.0164 nM |  | 
B10 | 0.0251 nM | 0.0243 nM |  | 
B11 |  | 0.0114 nM |  | 
B12 | 0.0058 nM | 0.0037 nM |  | 
B13 |  |  | 14% | 26.6%
B14 |  |  | 4% | -0.3%
